Experimental data taken from publication PMC12572175, “A synergistic generative-ranking framework for tailored design of therapeutic single-domain antibodies” (Cell Discovery, 2025).

Molecular target: T1, Recombinant human TNFα (Homo sapiens, UniProt P01375)
T1 construct: human TNFα, residues 77-233 of GenBank AAA61198.1, behind an N-terminal signal peptide and 6x His tag; also called hTNFα; TFNα; source: Expi293, transient transfection, purified (Ni-NTA)
Assay: ELISA; 100-200 ng/well antigen coated in PBS, sdAbs added in 3-fold serial dilutions, 1.5 h at 37 °C, detected with HRP anti-flag antibody
Details: both partners purified

T1 sequence (P01375 77-233): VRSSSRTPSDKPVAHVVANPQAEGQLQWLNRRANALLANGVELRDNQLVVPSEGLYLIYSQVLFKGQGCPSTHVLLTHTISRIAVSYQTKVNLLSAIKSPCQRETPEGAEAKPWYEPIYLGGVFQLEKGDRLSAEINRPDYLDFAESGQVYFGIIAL

Row | Binder | binding result
1 | VHH3-M1 (VHH, redesigned variant of VHH3 (carries L90Q, IMGT numbering); Designed by TFDesign-sdAb; pComb3x with N-terminal OmpA signal peptide; also called VHH-M1; source: E. coli HB2151, purified (Ni-NTA or Protein A resin); also in lysis supernatant; not shown: FLAG, C-terminal, kept) VHH: QVQLQDSGGGLVQAGGSLRLSCAVSGRTFSAHSVYTMGWFRQAPGKEREFVARIYWSSANTYYADSVKGRFTISRDNAKNTVDLQMNSLRPEDTAVYYCAARDGIPTSRTVGSYNYWGQGTQVTVSS | binds
2 | VHH3-M3 (VHH, redesigned variant of VHH3 (carries L90Q; differs from VHH3-M1 only at position 88, IMGT numbering); Designed by TFDesign-sdAb; pComb3x with N-terminal OmpA signal peptide; also called VHH-M3; source: E. coli HB2151, purified (Ni-NTA or Protein A resin); also in lysis supernatant; not shown: FLAG, C-terminal, kept) VHH: QVQLQDSGGGLVQAGGSLRLSCAVSGRTFSAHSVYTMGWFRQAPGKEREFVARIYWSSANTYYADSVKGRFTISRDNAKNTVYLQMNSLRPEDTAVYYCAARDGIPTSRTVGSYNYWGQGTQVTVSS | binds
